According to patent US20200123264A1 (Regeneron, published 2020):

T1: recombinant human LEPR extracellular domain expressed with a C-terminal mouse IgG2a Fc tag (human)
T1 construct: Dimeric construct; also called hLEPR.mFc; hLEPR-mFc
T1 chain: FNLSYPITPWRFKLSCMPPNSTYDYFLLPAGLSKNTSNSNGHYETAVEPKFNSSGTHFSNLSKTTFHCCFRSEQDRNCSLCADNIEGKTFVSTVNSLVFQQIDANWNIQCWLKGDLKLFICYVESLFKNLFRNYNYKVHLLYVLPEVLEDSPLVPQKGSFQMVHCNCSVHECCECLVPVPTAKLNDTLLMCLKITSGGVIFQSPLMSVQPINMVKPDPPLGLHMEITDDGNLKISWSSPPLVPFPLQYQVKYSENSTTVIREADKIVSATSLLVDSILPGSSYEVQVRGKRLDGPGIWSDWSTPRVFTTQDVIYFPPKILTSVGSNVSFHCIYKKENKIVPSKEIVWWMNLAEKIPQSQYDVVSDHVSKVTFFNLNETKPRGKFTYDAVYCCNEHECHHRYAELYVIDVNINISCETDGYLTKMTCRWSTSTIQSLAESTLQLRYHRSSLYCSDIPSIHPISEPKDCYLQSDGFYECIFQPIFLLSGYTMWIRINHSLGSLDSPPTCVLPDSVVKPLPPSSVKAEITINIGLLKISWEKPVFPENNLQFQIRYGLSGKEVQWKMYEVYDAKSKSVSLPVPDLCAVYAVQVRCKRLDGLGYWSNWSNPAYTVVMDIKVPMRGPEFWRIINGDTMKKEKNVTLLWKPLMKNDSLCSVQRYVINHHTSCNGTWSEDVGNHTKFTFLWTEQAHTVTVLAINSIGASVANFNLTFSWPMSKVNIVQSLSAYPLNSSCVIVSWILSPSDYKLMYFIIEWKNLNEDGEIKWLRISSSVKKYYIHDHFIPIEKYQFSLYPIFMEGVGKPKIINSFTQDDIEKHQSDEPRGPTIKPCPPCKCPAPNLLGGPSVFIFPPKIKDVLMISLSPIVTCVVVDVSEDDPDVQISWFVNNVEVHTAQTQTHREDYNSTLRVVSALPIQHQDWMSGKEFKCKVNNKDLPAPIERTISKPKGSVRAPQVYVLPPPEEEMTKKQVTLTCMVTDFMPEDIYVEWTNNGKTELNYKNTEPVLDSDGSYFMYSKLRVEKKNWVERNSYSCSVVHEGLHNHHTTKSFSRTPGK


Assays:
[1] = biological target: T2, recombinant human LEPR extracellular domain expressed with a C-terminal myc-myc-hexahistidine tag (human, UniProt P48357 22-839); test: SPR, mAb captured, 25 C
T2 construct: Monomeric construct; also called hLEPR.MMH; hLEPR-MMH
Procedure: (§1) Equilibrium dissociation constants (KD values) for antigen binding to purified anti-LEPR monoclonal antibodies of the invention were determined using a real-time surface plasmon resonance biosensor using a Biacore 4000 instrument. All binding studies were performed in running buffer containing 10 mM HEPES, 150 mM NaCl, 3 mM EDTA, and 0.05% v/v Surfactant Tween-20, pH 7.4 (HBS-ET running buffer) at 25° C. and 37° C. The Biacore sensor surface was first derivatized by amine coupling with a monoclonal mouse anti-human Fc antibody (GE, # BR-1008-39) to the capture anti-LEPR monoclonal antibodies. The LEPR reagents tested for binding to the anti-LEPR monoclonal antibodies included recombinant human LEPR extracellular domain expressed with a C-terminal myc-myc-hexahistidine tag (hLEPR.MMH; SEQ ID NO:90), recombinant cynomolgus monkey LEPR extracellular domain expressed with a C-terminal myc-myc-hexahistidine tag (mfLEPR.MMH; SEQ ID NO:93), recombinant mouse LEPR extracellular domain expressed with a C-terminal myc-myc-hexahistidine tag (mLEPR.MMH; SEQ ID NO:94), recombinant rat LEPR extracellular domain expressed with a C-terminal myc-myc-hexahistidine tag (rLEPR.MMH; SEQ ID NO:95), and recombinant human LEPR extracellular domain expressed with a C-terminal mouse IgG2a Fc tag (hLEPR.mFc; SEQ ID NO:91). LEPR constructs that include MMH tags are monomeric LEPR constructs, and LEPR constructs including an mFc tag are dimeric LEPR constructs. […] The dissociation of monoclonal antibody bound LEPR reagent was monitored for 10 minutes in HBS-ET running buffer. Kinetic association (10 and dissociation (10 rate constants were determined by fitting the real-time binding sensorgrams to a 1:1 binding model with mass transport limitation using Scrubber 2.0c curve-fitting software. Binding dissociation equilibrium constants (KD) and dissociative half-lives (t½) were calculated from the kinetic rate constants as: […]

[2] = biological target: T3, recombinant mouse LEPR extracellular domain expressed with a C-terminal myc-myc-hexahistidine tag (mouse, UniProt P48356 22-839); test: SPR, mAb captured, 25 C
T3 construct: Monomeric construct; also called mLEPR.MMH; mLEPR-MMH
T3 sequence (P48356 other isoform, or with tags, fused parts or gaps): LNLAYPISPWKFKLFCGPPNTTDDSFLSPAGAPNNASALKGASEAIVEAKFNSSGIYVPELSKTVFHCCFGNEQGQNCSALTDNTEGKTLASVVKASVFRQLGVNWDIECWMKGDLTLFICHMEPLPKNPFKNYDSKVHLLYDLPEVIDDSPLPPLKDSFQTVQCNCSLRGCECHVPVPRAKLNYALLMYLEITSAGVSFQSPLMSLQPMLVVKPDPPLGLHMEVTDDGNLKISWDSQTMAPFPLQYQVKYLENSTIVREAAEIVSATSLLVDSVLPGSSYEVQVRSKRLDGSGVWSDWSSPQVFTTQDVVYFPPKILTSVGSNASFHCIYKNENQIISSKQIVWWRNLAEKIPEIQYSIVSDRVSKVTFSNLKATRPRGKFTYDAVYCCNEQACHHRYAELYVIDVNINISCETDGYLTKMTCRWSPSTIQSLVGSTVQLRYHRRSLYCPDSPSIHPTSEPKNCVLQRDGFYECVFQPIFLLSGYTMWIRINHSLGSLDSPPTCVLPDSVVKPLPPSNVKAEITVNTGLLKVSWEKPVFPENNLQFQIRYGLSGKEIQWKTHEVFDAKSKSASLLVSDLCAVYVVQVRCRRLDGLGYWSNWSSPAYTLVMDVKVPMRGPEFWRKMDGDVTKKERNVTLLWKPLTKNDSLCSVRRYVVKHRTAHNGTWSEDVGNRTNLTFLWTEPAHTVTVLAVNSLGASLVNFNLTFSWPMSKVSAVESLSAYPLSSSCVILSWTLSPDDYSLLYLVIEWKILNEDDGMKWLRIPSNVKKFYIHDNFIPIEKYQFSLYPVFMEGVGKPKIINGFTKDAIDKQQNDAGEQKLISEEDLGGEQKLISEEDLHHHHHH
Procedure: as §1

[3] = biological target: T4, recombinant rat LEPR extracellular domain expressed with a C-terminal myc-myc-hexahistidine tag (rat, UniProt Q62959 22-839); test: SPR, mAb captured, 25 C
T4 construct: Monomeric construct; also called rLEPR.MMH; rLEPR-MMH
T4 sequence (Q62959 other isoform, or with tags, fused parts or gaps): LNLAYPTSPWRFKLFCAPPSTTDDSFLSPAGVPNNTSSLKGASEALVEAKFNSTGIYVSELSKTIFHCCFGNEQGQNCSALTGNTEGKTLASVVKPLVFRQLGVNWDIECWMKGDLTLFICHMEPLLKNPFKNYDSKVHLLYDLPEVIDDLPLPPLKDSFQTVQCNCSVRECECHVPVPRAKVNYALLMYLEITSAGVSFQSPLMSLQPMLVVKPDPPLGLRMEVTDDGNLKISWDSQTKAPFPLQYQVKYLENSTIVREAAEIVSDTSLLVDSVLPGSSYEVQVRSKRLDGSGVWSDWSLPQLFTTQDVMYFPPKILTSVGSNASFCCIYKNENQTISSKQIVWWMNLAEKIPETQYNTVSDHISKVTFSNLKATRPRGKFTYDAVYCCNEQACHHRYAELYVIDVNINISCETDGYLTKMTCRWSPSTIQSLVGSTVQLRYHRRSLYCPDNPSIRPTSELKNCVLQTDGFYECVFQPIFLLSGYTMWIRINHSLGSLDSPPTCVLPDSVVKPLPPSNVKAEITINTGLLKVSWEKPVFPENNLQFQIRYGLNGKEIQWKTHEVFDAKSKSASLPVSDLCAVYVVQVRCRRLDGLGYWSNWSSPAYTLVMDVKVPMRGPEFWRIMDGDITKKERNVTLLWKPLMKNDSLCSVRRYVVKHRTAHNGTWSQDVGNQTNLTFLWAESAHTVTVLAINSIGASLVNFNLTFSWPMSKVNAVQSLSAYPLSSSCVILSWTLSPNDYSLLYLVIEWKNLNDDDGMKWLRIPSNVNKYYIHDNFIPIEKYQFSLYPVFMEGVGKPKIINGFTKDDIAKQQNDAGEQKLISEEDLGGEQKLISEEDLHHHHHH
Procedure: as §1

[4] = biological target: T1, recombinant human LEPR extracellular …; test: SPR, mAb captured, 25 C
Procedure: as §1

[5] = biological target: T5, recombinant cynomolgus monkey LEPR extracellular domain expressed with a C-terminal myc-myc-hexahistidine tag (cynomolgus monkey, UniProt Q9MYL0 22-837 (rhesus entry)); test: SPR, mAb captured, 25 C
T5 construct: Monomeric construct; also called mfLEPR.MMH; mfLEPR-MMH
Procedure: as §1

[6] = biological target: T3, recombinant mouse LEPR extracellular …; test: SPR, mAb captured, 37 C
Procedure: as §1

[7] = biological target: T6, extracellular domain portion of LEPR protein expressed with a C-terminal human Fc tag (human); test: competition ELISA, 500 nM Ab, 10 nM hLEPR-hFc binding to coated hLeptin
T6 construct: Dimeric construct; also called hLEPR.hFc; hLEPR-hFc
Procedure: These antibody-protein or protein-protein complexes were then incubated for 1.5 hour at room temperature (RT). […] Samples were developed with a TMB solution (BD Biosciences, #555214; substrate A and B mixed at 1:1 ratio as per manufacturer's instructions) to produce a colorimetric reaction and then neutralized with 1M sulfuric acid before measuring absorbance at 450 nm on a Victor X5 plate reader. Data analysis was performed using a sigmoidal dose-response model within Prism™ software (Graph Pad).

Binder | 100 nM hLEPR-MMH Bound (RU) [1] [RU] | Kd [1] [nM] | koff [1] [s⁻¹] | kon [1] [M⁻¹ s⁻¹] | t½ [1] [min] | 100 nM mLEPR-MMH Bound (RU) [2] [RU] | 100 nM rLEPR-MMH Bound (RU) [3] [RU] | 100 nM hLEPR-mFc Bound (RU) [4] [RU] | Kd [4] [nM] | koff [4] [s⁻¹] | kon [4] [M⁻¹ s⁻¹] | t½ [4] [min] | 100 nM mfLEPR-MMH Bound (RU) [5] [RU] | Kd [5] [nM] | koff [5] [s⁻¹] | kon [5] [M⁻¹ s⁻¹] | t½ [5] [min] | 100 nM mLEPR-MMH Bound (RU) [6] [RU] | % blockade [7] [%] | Kd [3] [nM] | other results
H4H18464P2 (antibody, human IgG4, V domains shown, H4H prefix: human IgG4 Fc) VH: QVQLVQSGPEVKKPGASVKVSCKGSGYTFSWYGISWIRQAPGHGLEWMGWISASSGNTRFAQKVQGRLTMTTDTSTSTAYMELRSLRSDDTAVYYCARTGTRPFDYWGQGTLVTVSS VL: not shown | 60 | 9.09 | 0.00113 | 124000 | 10 | -1 | -1 | 84 | 0.891 | 0.000188 | 211000 | 61 | 15 | 60.4 | 0.00231 | 38200 | 5 | 1 | -5 |  | 
H4H18440P2 (antibody, human IgG4, V domains shown, H4H prefix: human IgG4 Fc) VH: QVQLVESGGGMVKPGGSLRLSCAASGFTFSDYYMSWIRQAPGKGLEWISHISITGSTIYYADSVKGRFTISRDNAKNSLYLEMNRLRDEDTAVYYCTRDEPDIVLVRYGMDVWGQGTTVTVSS VL: not shown | 71 | 11.8 | 0.000497 | 42300 | 23 | -3 | -2 | 140 | 0.443 | 6.82e-05 | 154000 | 169 | 67 | 54.1 | 0.00268 | 49500 | 4.3 | -1 | 3 |  | 
H4H18457P2 (antibody, human IgG4, V domains shown, H4H prefix: human IgG4 Fc) VH: EVQLVESGGSVVRPGESLRLSCAASGFTFDDYGMSWVRQAPGKGLEWVSGISWNGGITVYADSVKGRFTVSRDNAKNSLYLQMNSLRAEDTALYHCARARYGGADYWGQGTLVTVSS VL: not shown | 119 | 9.89 | 0.00252 | 255000 | 5 | 1 | 18 | 149 | 0.863 | 0.000423 | 491000 | 27 | 133 | 12.2 | 0.00331 | 273000 | 3.5 | -1 | 4 | 730 | koff [3]: 0.0206 s⁻¹; kon [3]: 28300 M⁻¹ s⁻¹; t½ [3]: 0.6 min
H4H17322P2 (antibody, human IgG4, V domains shown, H4H prefix: human IgG4 Fc) VH: QLQLQESGPGLVKPSETLSLTCTVSGASISSSRFYGGWIRQPPGKGLEWIGDIYYSGNTYYNPSLQSRVTISVDTSKNQFSLKLSSVTAADTAVYYCARHLMITFGGLIVEGFDIWGQGTMVTVSS VL: not shown | 66 | 5.11 | 0.000224 | 43800 | 52 | 0 |  | 74 | 1.77 | 0.000114 | 64500 | 102 | 102 | 4.16 | 0.000292 | 70200 | 40 | -1 | 13 |  | 
H4H18437P2 (antibody, human IgG4, V domains shown, H4H prefix: human IgG4 Fc) VH: QVQLVESGGGVVQPGRSLRLSCAASGFTFSSYGIHWVRQAPGKGLEWVAVISYDGNNKYYADSVKGRFTISRDNSKNTLYLQMNSLRAEDTAVYYCAKDLFLEWLFHGMGVWGQGTTVTVSS VL: not shown | 56 | 65.3 | 0.00375 | 57400 | 3.1 | 6 | 13 | 70 | 5.27 | 0.000536 | 102000 | 22 | 70 | 58.9 | 0.00405 | 68700 | 2.9 | 6 | 9 | 328 | Kd [2]: 264 nM; koff [2]: 0.00418 s⁻¹; kon [2]: 15800 M⁻¹ s⁻¹; t½ [2]: 2.8 min; koff [3]: 0.0138 s⁻¹; kon [3]: 42100 M⁻¹ s⁻¹; t½ [3]: 0.8 min; Kd [6]: 1160 nM; koff [6]: 0.0133 s⁻¹; kon [6]: 11500 M⁻¹ s⁻¹; t½ [6]: 0.9 min
H4H18462P2 (antibody, human IgG4, V domains shown, H4H prefix: human IgG4 Fc) VH: EVQLVESGGDLVQPGRSLRLSCAASGFTFSSFAMSWVRQAPGRGLEWVSSLSDSGDNTYYADSVKGRFTISRDNSKNTLYLQMNNLRAEDTAVYYCAKDLFSGWLFHGFDVWGQGTMVTVSS VL: not shown | 34 | 113 | 0.00765 | 67900 | 1.5 | 2 | 5 | 68 | 3.26 | 0.000296 | 90800 | 39 | 42 | 179 | 0.0133 | 74200 | 0.9 |  | 14 | 336 | binding result [2]: no binding (tested: 100 nM); koff [3]: 0.0108 s⁻¹; kon [3]: 32100 M⁻¹ s⁻¹; t½ [3]: 1.1 min
